Assay [1] has as its target T1, Biotinylated human CD3εδ heterodimer (Fc-fused human CD3ε / Fc-fused human CD3δ) (human, biotin on the Avi tag (BirA)).
T1 chain 1: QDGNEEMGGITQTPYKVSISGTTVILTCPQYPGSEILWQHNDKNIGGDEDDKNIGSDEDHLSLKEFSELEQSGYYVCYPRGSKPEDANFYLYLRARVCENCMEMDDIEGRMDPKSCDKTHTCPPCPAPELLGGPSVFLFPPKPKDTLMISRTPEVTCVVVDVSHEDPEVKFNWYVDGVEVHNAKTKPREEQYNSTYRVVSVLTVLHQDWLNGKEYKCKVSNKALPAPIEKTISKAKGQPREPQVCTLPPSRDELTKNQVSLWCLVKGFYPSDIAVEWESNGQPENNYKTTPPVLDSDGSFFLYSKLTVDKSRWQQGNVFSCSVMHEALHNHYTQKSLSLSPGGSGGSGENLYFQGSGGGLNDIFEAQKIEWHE
T1 chain 2: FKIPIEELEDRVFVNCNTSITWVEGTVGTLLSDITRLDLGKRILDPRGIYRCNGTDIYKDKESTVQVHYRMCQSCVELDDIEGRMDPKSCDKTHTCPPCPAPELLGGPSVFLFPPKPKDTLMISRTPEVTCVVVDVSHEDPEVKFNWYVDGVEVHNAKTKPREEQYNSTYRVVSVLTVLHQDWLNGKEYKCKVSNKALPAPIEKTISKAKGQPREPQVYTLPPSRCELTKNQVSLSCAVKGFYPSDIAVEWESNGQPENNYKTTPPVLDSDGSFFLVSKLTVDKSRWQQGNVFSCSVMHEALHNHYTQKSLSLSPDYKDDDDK
The experiment in a line: BLI (Octet RED384), 37 C; biotinylated CD3εδ on streptavidin sensor, one-arm antibody in solution for 120 s. Here is the method:
(§1) Using an Octet RED 384 (ForteBio), a streptavidin sensor (ForteBio) was reacted with CD3εδ prepared at 0.2 μM in ACES at 37° C. for 300 seconds. […] Response values were extracted every three seconds, and graphs were depicted using Microsoft Excel 2013 (Microsoft).
In general terms: In BLI a coated tip is dipped into the sample, and binding shifts an interference pattern.

Assay [2] deals with T1, Biotinylated human CD3εδ heterodimer …. Briefly: BLI (Octet RED384); CD3εδ on streptavidin sensor, IC17 one arm for 120 s, then 1 µM Fab in HBS-EP+ for 120 s. Here is the method:
as §1

In assay [3] the target is T2, negative control IC17 (IC17Hdk-F760mnP17/IC17L-k0).
T2 construct: also called anti-KLH antibody
The experiment in a line: SPR (Biacore), 37 C; ligand antibody captured on SuRe protein A chip (1000 RU), Fab as analyte at 100 nM for 180 s; amount of binding per 1 RU of ligand. On the procedure:
(§2) SuRe protein A (GE Healthcare) prepared at 25 μg/mL using Acetate4.5 (GE Healthcare) was immobilized on sensor chip CM4 at approximately 1000 RU per flow cell using an amine coupling kit (GE Healthcare).
(§3) First, to evaluate the binding specificity of the clamping antibodies, a ligand was reacted at 37° C. for 60 seconds at a flow rate of 10 μL/min to capture 1000 RU, and an analyte prepared at 100 nM was allowed to act for 180 seconds at a flow rate of 30 μL/min, and the amount of binding was measured.

The target of assay [4] is CD3 antibody CE115HA000 (CE115HA000-F760mnP17/GLS3000-k0). The assay is described as above. Here is the method: as §2, §3
Chain of CD3 antibody CE115HA000 (CE115HA000-F760mnP17/GLS3000-k0) (VH, as listed by the source, chain 1 of 2): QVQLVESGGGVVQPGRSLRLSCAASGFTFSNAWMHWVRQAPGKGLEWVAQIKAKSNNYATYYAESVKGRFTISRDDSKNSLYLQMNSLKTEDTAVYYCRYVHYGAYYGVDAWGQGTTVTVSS
Chain of CD3 antibody CE115HA000 (CE115HA000-F760mnP17/GLS3000-k0) (VL, as listed by the source, chain 2 of 2): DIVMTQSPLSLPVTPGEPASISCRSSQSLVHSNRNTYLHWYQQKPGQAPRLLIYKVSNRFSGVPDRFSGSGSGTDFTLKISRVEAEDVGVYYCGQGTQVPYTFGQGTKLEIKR
The target of assay [5] is T3, CD3ε epitope-fused GPC3 antibody (hGC33VHGP01-rabCH1hG1m/hGC33VL-rabk).
T3 construct: control for recognition of the peptide alone
T3 sequence (VH, as listed by the source, chain 1 of 2): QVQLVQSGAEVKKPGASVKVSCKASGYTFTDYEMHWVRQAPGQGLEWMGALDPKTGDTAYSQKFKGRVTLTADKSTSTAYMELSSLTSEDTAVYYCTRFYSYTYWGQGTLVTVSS
T3 sequence (VL, as listed by the source, chain 2 of 2): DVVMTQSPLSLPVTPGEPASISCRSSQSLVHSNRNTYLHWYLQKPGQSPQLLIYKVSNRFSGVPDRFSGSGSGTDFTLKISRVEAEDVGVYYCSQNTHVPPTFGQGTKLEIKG
The assay is described as above. Here is the method: as §2, §3

Assay [6] concerns the target CD3 antibody CE115HA146 (CE115HA146-F760mnP17/GLS3000-k0). The assay is described as above. On the procedure:
as §2, §3

Assay [7] has as its target CD3 antibody CE115HA056 (CE115HA056-F760mnP17/GLS3000-k0). Described as above. On the procedure: as §2, §3
Assay [8] concerns the target T4, CD3ε epitope-fused CE115HA056 (CE115HAGP12-rabIgG/GLS3000-rabk).
T4 construct: rabbit constant regions; also called CE115HAPG12
Briefly: SPR (Biacore T200), ligand captured on protein A, Fab 0-400 nM as analyte, 37 C. Here is the method:
as §2
(§4) The sensor chip was regenerated by passing Glycine1.5 and 25 mM NaOH, each at a flow rate of 30 μL/min for 15 seconds. The dissociation constant KD (M) was calculated based on the association rate constant ka (1/Ms) and the dissociation rate constant kd (1/s), which are kinetic parameters calculated from the sensorgram obtained by the measurement. Biacore T200 Evaluation Software (GE Healthcare) was used for calculation of each parameter.
On the technique in general: In SPR one partner is held on a chip, and binding of the other changes the refractive index at the surface.

Assay [9] concerns the target T5, CD3ε epitope-fused CE115HA146 (CE115HAGP13-rabIgG/GLS3000-rabk).
T5 construct: stands for the antigen/antibody complex; Rabbit constant regions; also called CE115HAPG13
The description is as above. On the procedure: as §2, §4

These results are taken from patent publication US20240190960A1 (Chugai, published 2024).

T4 sequence (heavy, as listed by the source, chain 1 of 2): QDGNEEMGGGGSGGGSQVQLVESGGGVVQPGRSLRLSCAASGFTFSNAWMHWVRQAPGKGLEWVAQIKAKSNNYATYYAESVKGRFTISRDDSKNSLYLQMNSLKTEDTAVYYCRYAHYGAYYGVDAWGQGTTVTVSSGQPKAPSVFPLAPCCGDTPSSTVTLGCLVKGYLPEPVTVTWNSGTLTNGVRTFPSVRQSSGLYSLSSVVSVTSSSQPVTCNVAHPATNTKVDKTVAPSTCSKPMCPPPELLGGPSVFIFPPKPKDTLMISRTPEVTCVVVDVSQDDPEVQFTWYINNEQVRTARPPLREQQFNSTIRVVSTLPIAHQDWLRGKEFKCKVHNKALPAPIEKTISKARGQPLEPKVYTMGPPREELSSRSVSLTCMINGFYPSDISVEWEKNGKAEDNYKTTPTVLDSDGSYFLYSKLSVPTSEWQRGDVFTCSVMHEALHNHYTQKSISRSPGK
T4 sequence (light, as listed by the source, chain 2 of 2): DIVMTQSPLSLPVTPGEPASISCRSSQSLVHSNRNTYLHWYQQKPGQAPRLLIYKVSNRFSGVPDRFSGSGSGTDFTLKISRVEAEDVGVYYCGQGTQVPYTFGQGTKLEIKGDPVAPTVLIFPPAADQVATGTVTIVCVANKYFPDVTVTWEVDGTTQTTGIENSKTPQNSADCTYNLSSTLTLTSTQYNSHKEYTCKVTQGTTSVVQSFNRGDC
T5 sequence (heavy, as listed by the source, chain 1 of 2): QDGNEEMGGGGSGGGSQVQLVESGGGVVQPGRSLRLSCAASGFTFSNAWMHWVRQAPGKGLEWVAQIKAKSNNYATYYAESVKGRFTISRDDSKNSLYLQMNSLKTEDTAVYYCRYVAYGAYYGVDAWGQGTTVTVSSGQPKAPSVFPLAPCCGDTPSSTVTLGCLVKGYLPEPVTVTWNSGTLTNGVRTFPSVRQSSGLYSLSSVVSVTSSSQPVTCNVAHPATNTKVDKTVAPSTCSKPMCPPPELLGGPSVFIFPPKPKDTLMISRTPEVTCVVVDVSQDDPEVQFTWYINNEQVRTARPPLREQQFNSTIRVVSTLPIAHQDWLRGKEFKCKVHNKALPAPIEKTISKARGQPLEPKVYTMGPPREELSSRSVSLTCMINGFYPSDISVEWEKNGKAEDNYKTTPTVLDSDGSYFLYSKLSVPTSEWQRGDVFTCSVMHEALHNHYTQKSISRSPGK
T5 sequence (light, as listed by the source, chain 2 of 2): as the sequence (light, as listed by the source, chain 2 of 2) above
Chain of CD3 antibody CE115HA056 (CE115HA056-F760mnP17/GLS3000-k0) (heavy, as listed by the source): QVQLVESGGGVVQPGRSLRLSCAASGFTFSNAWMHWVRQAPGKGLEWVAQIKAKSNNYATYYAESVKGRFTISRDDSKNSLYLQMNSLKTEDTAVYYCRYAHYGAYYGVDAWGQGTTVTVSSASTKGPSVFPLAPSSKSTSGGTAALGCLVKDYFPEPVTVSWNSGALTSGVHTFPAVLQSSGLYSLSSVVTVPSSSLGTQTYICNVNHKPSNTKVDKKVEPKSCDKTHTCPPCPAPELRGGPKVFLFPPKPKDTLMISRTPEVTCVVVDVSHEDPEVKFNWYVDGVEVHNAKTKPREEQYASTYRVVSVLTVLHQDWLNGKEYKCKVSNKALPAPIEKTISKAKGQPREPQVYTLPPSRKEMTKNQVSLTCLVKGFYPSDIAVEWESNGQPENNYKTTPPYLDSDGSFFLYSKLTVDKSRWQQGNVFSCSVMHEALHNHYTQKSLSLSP
Chain of CD3 antibody CE115HA146 (CE115HA146-F760mnP17/GLS3000-k0) (heavy, as listed by the source): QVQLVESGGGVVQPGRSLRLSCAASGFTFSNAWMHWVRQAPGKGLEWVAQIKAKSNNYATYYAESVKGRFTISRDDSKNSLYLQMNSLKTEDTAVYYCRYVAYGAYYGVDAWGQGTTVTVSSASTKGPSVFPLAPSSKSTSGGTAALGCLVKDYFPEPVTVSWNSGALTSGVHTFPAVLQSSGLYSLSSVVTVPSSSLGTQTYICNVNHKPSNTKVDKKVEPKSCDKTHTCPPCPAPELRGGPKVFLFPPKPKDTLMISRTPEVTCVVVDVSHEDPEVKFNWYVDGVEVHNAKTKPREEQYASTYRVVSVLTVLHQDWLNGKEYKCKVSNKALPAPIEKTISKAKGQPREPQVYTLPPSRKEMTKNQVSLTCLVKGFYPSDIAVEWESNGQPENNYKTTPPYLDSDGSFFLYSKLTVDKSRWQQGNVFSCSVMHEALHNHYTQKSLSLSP

B1: IC17 one arm (antibody, human IgG1, kappa, L234A L235A, N297A)
heavy chain (IC17Hdk-pE22Hh): QVQLQQSGPQLVRPGASVKISCKASGYSFTSYWMHWVNQRPGQGLEWIGMIDPSYSETRLNQKFKDKATLTVDKSSSTAYMQLSSPTSEDSAVYYCALYGNYFDYWGQGTTLTVSSASTKGPSVFPLAPSSKSTSGGTAALGCLVKDYFPEPVTVSWNSGALTSGVHTFPAVLQSSGLYSLSSVVTVPSSSLGTQTYICNVNHKPSNTKVDKKVEPKSCDKTHTCPPCPAPEAAGGPSVFLFPPKPKDTLMISRTPEVTCVVVDVSHEDPEVKFNWYVDGVEVHNAKTKPREEQYASTYRVVSVLTVLHQDWLNGKEYKCKVSNKALPAPIEKTISKAKGQPREPQVYTLPPSRCELTKNQVSLSCAVKGFYPSDIAVEWESNGQPENNYKTTPPVLDSDGSFFLVSKLTVDKSRWQQGNVFSCSVMHEALHNHYTQKSLSLSPDYKDDDDK
light chain (IC17L-k0): DIQMTQSSSSFSVSLGDRVTITCKASEDIYNRLAWYQQKPGNAPRLLISGATSLETGVPSRFSGSGSGKDYTLSITSLQTEDVATYYCQQYWSTPYTFGGGTKLEVKRTVAAPSVFIFPPSDEQLKSGTASVVCLLNNFYPREAKVQWKVDNALQSGNSQESVTEQDSKDSTYSLSSTLTLSKADYEKHKVYACEVTHQGLSSPVTKSFNRGEC
antibody fragment having no variable region (Kn010): not shown
notes: also called negative control anti-KLH antibody IC17 one arm (IC17Hdk-pE22Hh/IC17L-k0//Kn010)
Turning to B1, in assay [1], the binding result is “no binding”.

B2: CLA0334 Fab fragment (from CLA0334VH-F760mnP17/CLA0334VL-k0C) (Fab, V domains shown)
VH: QEQLEESGGDLVKPEGSLTLTCTASGFSLSVSYWICWVRQAPGKGLEWIACIYAGSTGSTWYANWAKGRFTISKTSSTTVTLQMTSLTAADTATYFCARDSGWNAFDLWGPGTLVTVSS
VL: DVVMTQTPASVSAAVGGTVTIKCQASQSIGSNLAWYQQKSGHPPNLLIYEASGLASGVPLRFSGSGSGTQFTLTISDLECADAATYYCQSYYYSPSVSVHYAFGGGTEVVVKR
notes: Fab prepared from the full antibody with the Pierce Fab Preparation Kit; also called clamping antibody CLA0334
In the case of B2, the binding result in assay [2] is given as “no binding (tested: 1 µM)”; in assay [3] it was “no binding (tested: 100 nM)”; in assay [4] it was “no binding (tested: 100 nM)”; in assay [5] it was “no binding (tested: 100 nM)”; in assay [6], “no binding (tested: 100 nM)”; in [7] it was “no binding (tested: 100 nM)”. The values for the Kd in [8] and in [9] were 110 nM and 150 nM, respectively.

Usually Kd stands for the free concentration of one partner at which half of the binding sites on the other are occupied at equilibrium, for simple one-to-one binding. High values mean lower affinity, low ones higher affinity.
